Columns and labels:
[1] = molecular target: Recombinant human fibrinogen from the milk of transgenic mice (UniProt P02671)
[2] = molecular target: Plasma derived human fibrinogen (reference protein) (UniProt P02671)

## Human thrombin
[1]
  clot formation after thrombin, 4 U/ml, 37 C, 24 hours: Cloudy clot-like precipitates were clearly visible in TG (pellet-2)
[2]
  clot formation after thrombin, 4 U/ml, 37 C, 24 hours: Cloudy clot-like precipitates were clearly visible in ... hFIB-spiked NTG (pellet-2)

From patent publication US6984772
